{"source": "paper doi:10.1101/2025.05.09.653011", "about": "(bioRxiv, 2025)", "key": {"Human PPIA K76E mutant": {"target": "Human PPIA K76E mutant (human, UniProt P62937 2-165, K76E)", "sequence (P62937 2-165 K76E)": "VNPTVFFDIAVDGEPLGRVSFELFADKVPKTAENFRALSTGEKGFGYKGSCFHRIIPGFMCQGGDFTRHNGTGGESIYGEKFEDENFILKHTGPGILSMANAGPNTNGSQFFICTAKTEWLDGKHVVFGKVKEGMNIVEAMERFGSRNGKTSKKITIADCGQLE", "test": "NMR titration"}, "[1]": {"target": "Human wild-type peptidylprolyl cis-trans isomerase A (PPIA) (human, UniProt P62937 2-165)", "sequence (P62937 2-165)": "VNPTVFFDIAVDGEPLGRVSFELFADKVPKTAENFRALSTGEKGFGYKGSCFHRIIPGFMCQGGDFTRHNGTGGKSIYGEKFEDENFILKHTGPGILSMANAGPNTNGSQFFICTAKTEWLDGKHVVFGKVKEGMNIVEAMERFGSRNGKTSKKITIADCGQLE", "test": "NMR titration"}}}
{"binder": "Ac-FGPDLPAGD-NH2", "note": "[Ac-FGPDLPAGD-NH2]", "values": [{"measurement": "binding result", "setting": "Human PPIA K76E mutant", "result": "binds"}, {"measurement": "binding result", "setting": "[1]", "result": "binds"}]}
